# B1: DYRK-family kinase pom1 (Schizosaccharomyces pombe (strain ATCC 38366 / 972)), Q09690 (parent)
# chain: MGYLQSQKAVSLGDENTDALFKLHTSNRKSANMFGIKSELLNPSELSAVGSYSNDICPNRQSSSSTAADTSPSTNASNTNISFPEQEHKDELFMNVEPKGVGSSMDNHAITIHHSTGNGLLRSSFDHDYRQKNSPRNSIHRLSNISIGNNPIDFESSQQNNPSSLNTSSHHRTSSISNSKSFGTSLSYYNRSSKPSDWNQQNNGGHLSGVISITQDVSSVPLQSSVFSSGNHAYHASMAPKRSGSWRHTNFHSTSHPRAASIGNKSGIPPVPTIPPNIGHSTDHQHPKANISGSLTKSSSESKNLSTIQSPLKTSNSFFKELSPHSQITLSNVKNNHSHVGSQTKSHSFATPSVFDNNKPVSSDNHNNTTTSSQVHPDSRNPDPKAAPKAVSQKTNVDGHRNHEAKHGNTVQNESKSQKSSNKEGRSSRGGFFSRLSFSRSSSRMKKGSKAKHEDAPDVPAIPHAYIADSSTKSSYRNGKKTPTRTKSRMQQFINWFKPSKERSSNGNSDSASPPPVPRLSITRSQVSREPEKPEEIPSVPPLPSNFKDKGHVPQQRSVSYTPKRSSDTSESLQPSLSFASSNVLSEPFDRKVADLAMKAINSKRINKLLDDAKVMQSLLDRACIITPVRNTEVQLINTAPLTEYEQDEINNYDNIYFTGLRNVDKRRSADENTSSNFGFDDERGDYKVVLGDHIAYRYEVVDFLGKGSFGQVLRCIDYETGKLVALKIIRNKKRFHMQALVETKILQKIREWDPLDEYCMVQYTDHFYFRDHLCVATELLGKNLYELIKSNGFKGLPIVVIKSITRQLIQCLTLLNEKHVIHCDLKPENILLCHPFKSQVKVIDFGSSCFEGECVYTYIQSRFYRSPEVILGMGYGTPIDVWSLGCIIAEMYTGFPLFPGENEQEQLACIMEIFGPPDHSLIDKCSRKKVFFDSSGKPRPFVSSKGVSRRPFSKSLHQVLQCKDVSFLSFISDCLKWDPDERMTPQQAAQHDFLTGKQDVRRPNTAPARQKFARPPNIETAPIPRPLPNLPMEYNDHTLPSPKEPSNQASNLVRSSDKFPNLLTNLDYSIISDNGFLRKPVEKSRP
# partner: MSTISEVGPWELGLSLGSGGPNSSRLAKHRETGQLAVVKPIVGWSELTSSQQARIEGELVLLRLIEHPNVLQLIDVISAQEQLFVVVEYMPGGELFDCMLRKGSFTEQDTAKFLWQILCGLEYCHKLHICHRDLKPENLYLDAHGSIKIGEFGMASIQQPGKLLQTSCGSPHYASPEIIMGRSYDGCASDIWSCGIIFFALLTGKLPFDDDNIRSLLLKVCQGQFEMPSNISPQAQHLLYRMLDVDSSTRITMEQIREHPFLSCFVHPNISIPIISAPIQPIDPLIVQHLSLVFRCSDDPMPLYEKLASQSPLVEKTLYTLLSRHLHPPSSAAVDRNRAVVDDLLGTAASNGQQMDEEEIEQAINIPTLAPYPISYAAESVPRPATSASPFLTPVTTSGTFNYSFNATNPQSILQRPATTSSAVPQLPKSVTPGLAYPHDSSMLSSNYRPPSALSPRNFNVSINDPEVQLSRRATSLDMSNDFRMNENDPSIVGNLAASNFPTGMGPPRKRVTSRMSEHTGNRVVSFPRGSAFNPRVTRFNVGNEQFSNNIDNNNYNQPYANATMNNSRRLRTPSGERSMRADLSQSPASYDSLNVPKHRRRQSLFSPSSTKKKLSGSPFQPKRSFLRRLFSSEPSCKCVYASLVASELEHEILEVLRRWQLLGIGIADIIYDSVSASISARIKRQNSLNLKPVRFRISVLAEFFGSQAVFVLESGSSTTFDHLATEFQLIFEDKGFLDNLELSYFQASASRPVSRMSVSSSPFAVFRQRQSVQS
# Variants of: B1
# Details: with cdr2_schpo cdr2, P87050
row,Variant,effect of a mutation on the interaction
1,K728R,disrupting interaction

# Reference: IntAct's records for PubMed 19474792
